Changes are numbered by the printed parent chain. In names and notes the source's numbering stands.
B1: mutant human Group IIA PLA2: recombinant double mutant G72K.T103K human Group IIA phospholipase A2, protein SEQ. ID. NO. 2, expressed in E. coli (protein)
chain: NLVNFHRLIKLTTGKEAALSYGFYGCHCGVGGRGSPKDATDRCCVTHDCCYKRLEKRGCGTKFLSYKFSNSKSRITCAKQDSCRSQLCECDKAAATCFARNKKTYNKKYQYYSNKHCRGSTPRC
B2: wild-type human Group IIA PLA2: wild-type human Group IIA 14 kDa phospholipase A2, comparator enzyme (protein, UniProt P14555 21-144, looked up)
Phospholipase A2, membrane …: B1 chain with L8M, K72G, K103T

Legend:
[1] = tested on: Reynolds strain of Staphylococcus aureus; assay: Efficacy of administered mutant PLA2 against S. aureus infection in vivo (i.p. infection in mice); parameters: species or system CD/1 mice
Procedure: Bacteria: Reynolds strain of Staphylococcus aureus (encapsulated; grown overnight on Columbia agar to maximize encapsulation as in experiments shown in Example 6).
Administration of bacteria: 2×10^7/ml in 0.2 ml of sterile RPMI supplemented with 10 mM HEPES (pH 7.4) and 1% bovine serum albumin. Intraperitoneal (i.p.) inoculation.
Adminstration of PLA2: 15 μg/0.2 ml of above medium i.p. approx. 10-15 min after inoculation of bacteria. Control animals received medium alone. Enzyme administered was Mutant [G72K.T103K] Group IIA PLA 2.
a) @ 30, 60, 120, and 240 min after infection, blood samples taken from tail vein from each of 4 animals in control and PLA2-treated groups. There were a total of 16 animals in each group; each animal was bled only once in this time period. Levels of bacteremia were assessed by measurement of bacterial CFU in blood.
b) @ 1 day after infection, 8 animals from each group were sacrificed. Blood was collected again to measure bacteremia and the peritoneal cavity was washed and inspected to look macroscopically for abscesses (none seen) and measure intraperitoneal bacteria by assay of CFU.
c) @ 6 days after infection, the remaining 8 animals from each group were sacrificed and infection in blood and peritoneal cavity was measured as above (still no abscesses seen). This animal model produces local and disseminated infection in control animals that is eventually self-limiting. The level of metastatic infection is greatest at approx. 6 days. In addition, kidneys were excised, weighed (no significant difference between animals within and between treatment groups) and homogenized to facilitate assay of bacterial CFU within infected kidney (i.e. representing metastatic infection).

S. aureus RN450 = assay: Bactericidal activity toward S. aureus RN450 in RPMI-1640 medium; type: cell-based, Staphylococcus aureus; conditions: FIG. 4, 10^6/ml, 1-500 ng/ml, 60 minutes
Procedure: The bactericidal activity of wild-type human and recombinant mutant human and rabbit Group IIA PLA2s against Staphylococcus aureus 52A (10^6 per ml)was determined. S. aureus was incubated with 0.01-100 nM of each Group IIA PLA2 and incubated at 37° C. for 2 hours in RPMI-1640 medium containing 10 mM HEPES, pH 7.4 and 1% (w/v) albumin. After incubation, bacterial viability was determined by measuring the colony forming ability of the bacteria in trypticase soy agar. Bacterial colonies were enumerated after 18-24 hours at 37° C. The results are expressed as the percentage of the colony forming units (CFU) of the original bacterial inoculum (i.e. at T=0).
S. aureus RN450 (10^6/ml) was incubated with 1-500 ng/ml of each Group IIA PLA2 at 37° C. for 60 minutes in RPMI-1640 medium containing 10 mM HEPES, pH 7.4 and 1% (w/v) albumin. Bacterial viability was determined as in Example 3.

S. aureus = assay: Antibacterial activity by colony-forming ability of susceptible bacteria; type: cell-based, Staphylococcus aureus
Procedure: According to the present invention, the mutant human Group IIA PLA2 of the present invention is characterized by bactericidal activity against gram positive bacteria, such as S. aureus (see Example 3). Antibacterial activity of mutant human Group IIA PLA2 may be quantified by measuring the colony-forming ability of susceptible bacteria that have been incubated with or without increasing amounts of mutant human Group IIA PLA2. Typically, a suspension of 10^6 bacteria/ml (e.g., S. aureus) is exposed to 1-500 ng/ml of mutant human Group IIA PLA2 for 60-90 minutes at 37° C., after which the cells are mixed with molten agar and plated. After overnight growth, bacterial colonies are compared between mutant Group IIA PLA2-treated and untreated cultures.

[2] = tested on: S. aureus RN450 and two clinical isolates, strains 5A (MRSA) and 18; assay: Bactericidal activity toward S. aureus RN450 and clinical isolates 5A and 18 in 70% pooled human sera; type: cell-based, Staphylococcus aureus; conditions: FIGS. 4 and 5; each of several strains; laboratory medium and 70% human sera, 90 minutes
Procedure: S. aureus RN450 and two clinical isolates, strains 5A (MRSA) and 18 (10^7/ml were incubated with 1-500 ng/ml of each Group IIA PLA2 at 37° C. for 90 minutes in 70% (v/v) pooled human sera diluted in Hanks' balanced salts solution and buffered with 10 mM HEPES, pH7.4.

Staphylococcus aureus = conditions: 100 ng/ml in biological fluids; 10^6 S. aureus cells/ml, incl. multi-drug resistant clinical isolates; cited from earlier work

| Molecule | abscesses seen ([1]; 6 days after infection, controls two of 16) | treatment of S. aureus infection in vivo ([1]; Example 7) | S. aureus bacteremia (CFU in blood) ([1]; FIG. 10, 15 μg i.p., 30, 60, 120, 240 min after infection) | metastatic kidney infection caused by S. aureus (CFU in kidney) ([1]; FIG. 11, 15 μg i.p., 6 days after infection) | antibacterial activity compared with wild-type human Group IIA PLA2 (S. aureus RN450) | bactericidal activity compared with WT rabbit Group IIA PLA2 (S. aureus RN450) | antibacterial activity relative to human WT homologue (S. aureus) [×] | activity compared with wild-type human Group IIA PLA2 [2] | activity compared with wild-type rabbit enzyme [2] | S. aureus cells killed (Staphylococcus aureus) |
| --- | --- | --- | --- | --- | --- | --- | --- | --- | --- | --- |
| B1 | none were seen | effective | reduces | reduces | increased antibacterial activity | nearly equivalent | 10 | significantly more active | essentially as active | – |
| B2 | – | – | – | – | – | – | – | – | – | greater than 99% |
